Numbered stars: 1 amine (or outer) side, 2 acyl side, 3 side chain; on linkers, the order of the positions; unused ones are H or OH. Bridge positions count the residues as written; N and C are the ends. Side chains are listed from the residue outwards. Ends that are not written are not given here. * marks the point of attachment. C20 diacid = O=C(O)CCCCCCCCCCCCCCCCCCC(=O)*; γGlu = O=C(O)[C@H](CCC(=O)[*:2])N[*:1]; AEEA = NCCOCCOCC(=O)O
T1: human calcitonin receptor (human, UniProt P30988 25-474)
T1 construct: whole, on cells; also called hCTR; hCT
T1 sequence (looked up): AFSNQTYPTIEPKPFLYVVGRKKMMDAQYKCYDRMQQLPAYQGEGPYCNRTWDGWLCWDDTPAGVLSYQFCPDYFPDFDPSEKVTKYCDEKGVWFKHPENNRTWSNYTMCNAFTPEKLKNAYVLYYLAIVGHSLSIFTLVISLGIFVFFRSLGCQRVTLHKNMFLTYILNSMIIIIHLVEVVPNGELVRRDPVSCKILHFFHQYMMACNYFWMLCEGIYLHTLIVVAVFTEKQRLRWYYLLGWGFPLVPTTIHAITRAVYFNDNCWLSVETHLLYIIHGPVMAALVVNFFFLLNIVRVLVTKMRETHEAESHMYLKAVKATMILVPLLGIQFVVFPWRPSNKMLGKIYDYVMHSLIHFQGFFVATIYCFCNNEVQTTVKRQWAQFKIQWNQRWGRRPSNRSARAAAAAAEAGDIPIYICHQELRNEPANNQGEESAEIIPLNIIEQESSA


Experiments:
[1] = biological target: T1, human calcitonin receptor; experiment: ratio of IC50 at hCTR to IC50 at the human amylin receptor (reference)
Procedure, shortened: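 IC₅₀ values were derived by one-site competition analysis of SPA counts. Cell membranes (35 ng/μL) with SPA beads were incubated with test compounds for 120 min at 25° C in Hepes buffer, pH 7.4, containing CaCl2, MgCl₂, OA and Tween20.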

[2] = biological target: T1, human calcitonin receptor; experiment: SPA competition binding, membranes with human calcitonin receptor, displacement of 125I-calcitonin (Assay VII)
Procedure, shortened: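 BHK hCTR membranes 35 ng/μL + SPA beads 0.05 mg/well; buffer 50 mM Hepes pH 7.4, 1 mM CaCl2, 5 mM MgCl₂, 0.1% OA, 0.02% Tween20. 120 min, 25° C., shaking. Scintillation count; IC50 by one-site binding competition.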

Binder | Ratio hCT/hAmylin binding [1] | IC50 [2]
K([γGlu-C20 diacid])CNTATCATQRLANFLRHSSPNFGAIPSSTNVGSKTY-NH2 (disulfide 2-7; N-terminus assumed; SMILES CC[C@H](C)[C@H](NC(=O)[C@H](C)NC(=O)CNC(=O)[C@H](Cc1ccccc1)NC(=O)[C@H](CC(N)=O)NC(=O)[C@@H]1CCCN1C(=O)[C@H](CO)NC(=O)[C@H](CO)NC(=O)[C@H](Cc1c[nH]cn1)NC(=O)[C@H](CCCNC(=N)N)NC(=O)[C@H](CC(C)C)NC(=O)[C@H](Cc1ccccc1)NC(=O)[C@H](CC(N)=O)NC(=O)[C@H](C)NC(=O)[C@H](CC(C)C)NC(=O)[C@H](CCCNC(=N)N)NC(=O)[C@H](CCC(N)=O)NC(=O)[C@@H](NC(=O)[C@H](C)NC(=O)[C@@H]1CSSC[C@H](NC(=O)[C@@H](N)CCCCNC(=O)CC[C@H](NC(=O)CCCCCCCCCCCCCCCCCCC(=O)O)C(=O)O)C(=O)N[C@@H](CC(N)=O)C(=O)N[C@@H]([C@@H](C)O)C(=O)N[C@@H](C)C(=O)N[C@@H]([C@@H](C)O)C(=O)N1)[C@@H](C)O)C(=O)N1CCC[C@H]1C(=O)N[C@@H](CO)C(=O)N[C@@H](CO)C(=O)N[C@H](C(=O)N[C@@H](CC(N)=O)C(=O)N[C@H](C(=O)NCC(=O)N[C@@H](CO)C(=O)N[C@@H](CCCCN)C(=O)N[C@H](C(=O)N[C@@H](Cc1ccc(O)cc1)C(N)=O)[C@@H](C)O)C(C)C)[C@@H](C)O, also called compound 35) [N^ε1-[(4S)-4-carboxy-4-(19-carboxynonadecanoylamino)butanoyl]-[Arg17,Pro21,Pro27,Lys35]-h-amylin] | 50.3 | 48.8 nM
K([γGlu-C20 diacid])CNTATCATQRLANFLRHSSPNFGAIPSSTNVGSETY-NH2 (disulfide 2-7; N-terminus assumed; SMILES CC[C@H](C)[C@H](NC(=O)[C@H](C)NC(=O)CNC(=O)[C@H](Cc1ccccc1)NC(=O)[C@H](CC(N)=O)NC(=O)[C@@H]1CCCN1C(=O)[C@H](CO)NC(=O)[C@H](CO)NC(=O)[C@H](Cc1c[nH]cn1)NC(=O)[C@H](CCCNC(=N)N)NC(=O)[C@H](CC(C)C)NC(=O)[C@H](Cc1ccccc1)NC(=O)[C@H](CC(N)=O)NC(=O)[C@H](C)NC(=O)[C@H](CC(C)C)NC(=O)[C@H](CCCNC(=N)N)NC(=O)[C@H](CCC(N)=O)NC(=O)[C@@H](NC(=O)[C@H](C)NC(=O)[C@@H]1CSSC[C@H](NC(=O)[C@@H](N)CCCCNC(=O)CC[C@H](NC(=O)CCCCCCCCCCCCCCCCCCC(=O)O)C(=O)O)C(=O)N[C@@H](CC(N)=O)C(=O)N[C@@H]([C@@H](C)O)C(=O)N[C@@H](C)C(=O)N[C@@H]([C@@H](C)O)C(=O)N1)[C@@H](C)O)C(=O)N1CCC[C@H]1C(=O)N[C@@H](CO)C(=O)N[C@@H](CO)C(=O)N[C@H](C(=O)N[C@@H](CC(N)=O)C(=O)N[C@H](C(=O)NCC(=O)N[C@@H](CO)C(=O)N[C@@H](CCC(=O)O)C(=O)N[C@H](C(=O)N[C@@H](Cc1ccc(O)cc1)C(N)=O)[C@@H](C)O)C(C)C)[C@@H](C)O, also called compound 27) [N^ε1-[(4S)-4-carboxy-4-(19-carboxynonadecanoylamino)butanoyl]-[Arg17,Pro21,Pro27,Glu35]-h-amylin] | 41.3 | 34.5 nM
K([γGlu-C20 diacid])CNTATCATQRLANFLRHSSPNFGAIPSSTNVGSNTY-NH2 (disulfide 2-7; N-terminus assumed; SMILES CC[C@H](C)[C@H](NC(=O)[C@H](C)NC(=O)CNC(=O)[C@H](Cc1ccccc1)NC(=O)[C@H](CC(N)=O)NC(=O)[C@@H]1CCCN1C(=O)[C@H](CO)NC(=O)[C@H](CO)NC(=O)[C@H](Cc1c[nH]cn1)NC(=O)[C@H](CCCNC(=N)N)NC(=O)[C@H](CC(C)C)NC(=O)[C@H](Cc1ccccc1)NC(=O)[C@H](CC(N)=O)NC(=O)[C@H](C)NC(=O)[C@H](CC(C)C)NC(=O)[C@H](CCCNC(=N)N)NC(=O)[C@H](CCC(N)=O)NC(=O)[C@@H](NC(=O)[C@H](C)NC(=O)[C@@H]1CSSC[C@H](NC(=O)[C@@H](N)CCCCNC(=O)CC[C@H](NC(=O)CCCCCCCCCCCCCCCCCCC(=O)O)C(=O)O)C(=O)N[C@@H](CC(N)=O)C(=O)N[C@@H]([C@@H](C)O)C(=O)N[C@@H](C)C(=O)N[C@@H]([C@@H](C)O)C(=O)N1)[C@@H](C)O)C(=O)N1CCC[C@H]1C(=O)N[C@@H](CO)C(=O)N[C@@H](CO)C(=O)N[C@H](C(=O)N[C@@H](CC(N)=O)C(=O)N[C@H](C(=O)NCC(=O)N[C@@H](CO)C(=O)N[C@@H](CC(N)=O)C(=O)N[C@H](C(=O)N[C@@H](Cc1ccc(O)cc1)C(N)=O)[C@@H](C)O)C(C)C)[C@@H](C)O, also called compound 48) [N^ε1-[(4S)-4-carboxy-4-(19-carboxynonadecanoylamino)butanoyl]-[Arg17,Pro21,Pro27]-h-amylin] | 69.7 | 30.9 nM

Now those with a lower IC50 [2], led by results:

Ratio hCT/hAmylin binding [1] | IC50 [2] | Binder
47.5 | 25.3 nM | K([AEEA-γGlu-C20 diacid])CNTATCATQRLANFLRHSSPNFGAIPSSTNVGSETY-NH2 (disulfide 2-7; N-terminus assumed; SMILES CC[C@H](C)[C@H](NC(=O)[C@H](C)NC(=O)CNC(=O)[C@H](Cc1ccccc1)NC(=O)[C@H](CC(N)=O)NC(=O)[C@@H]1CCCN1C(=O)[C@H](CO)NC(=O)[C@H](CO)NC(=O)[C@H](Cc1c[nH]cn1)NC(=O)[C@H](CCCNC(=N)N)NC(=O)[C@H](CC(C)C)NC(=O)[C@H](Cc1ccccc1)NC(=O)[C@H](CC(N)=O)NC(=O)[C@H](C)NC(=O)[C@H](CC(C)C)NC(=O)[C@H](CCCNC(=N)N)NC(=O)[C@H](CCC(N)=O)NC(=O)[C@@H](NC(=O)[C@H](C)NC(=O)[C@@H]1CSSC[C@H](NC(=O)[C@@H](N)CCCCNC(=O)COCCOCCNC(=O)CC[C@H](NC(=O)CCCCCCCCCCCCCCCCCCC(=O)O)C(=O)O)C(=O)N[C@@H](CC(N)=O)C(=O)N[C@@H]([C@@H](C)O)C(=O)N[C@@H](C)C(=O)N[C@@H]([C@@H](C)O)C(=O)N1)[C@@H](C)O)C(=O)N1CCC[C@H]1C(=O)N[C@@H](CO)C(=O)N[C@@H](CO)C(=O)N[C@H](C(=O)N[C@@H](CC(N)=O)C(=O)N[C@H](C(=O)NCC(=O)N[C@@H](CO)C(=O)N[C@@H](CCC(=O)O)C(=O)N[C@H](C(=O)N[C@@H](Cc1ccc(O)cc1)C(N)=O)[C@@H](C)O)C(C)C)[C@@H](C)O, also called compound 26)
49.9 | 21.3 nM | K([AEEA-γGlu-C20 diacid])CNTATCATQRLANFLRHSSPNFGAIPSSTNVGSNTY-NH2 (disulfide 2-7; N-terminus assumed; SMILES CC[C@H](C)[C@H](NC(=O)[C@H](C)NC(=O)CNC(=O)[C@H](Cc1ccccc1)NC(=O)[C@H](CC(N)=O)NC(=O)[C@@H]1CCCN1C(=O)[C@H](CO)NC(=O)[C@H](CO)NC(=O)[C@H](Cc1c[nH]cn1)NC(=O)[C@H](CCCNC(=N)N)NC(=O)[C@H](CC(C)C)NC(=O)[C@H](Cc1ccccc1)NC(=O)[C@H](CC(N)=O)NC(=O)[C@H](C)NC(=O)[C@H](CC(C)C)NC(=O)[C@H](CCCNC(=N)N)NC(=O)[C@H](CCC(N)=O)NC(=O)[C@@H](NC(=O)[C@H](C)NC(=O)[C@@H]1CSSC[C@H](NC(=O)[C@@H](N)CCCCNC(=O)COCCOCCNC(=O)CC[C@H](NC(=O)CCCCCCCCCCCCCCCCCCC(=O)O)C(=O)O)C(=O)N[C@@H](CC(N)=O)C(=O)N[C@@H]([C@@H](C)O)C(=O)N[C@@H](C)C(=O)N[C@@H]([C@@H](C)O)C(=O)N1)[C@@H](C)O)C(=O)N1CCC[C@H]1C(=O)N[C@@H](CO)C(=O)N[C@@H](CO)C(=O)N[C@H](C(=O)N[C@@H](CC(N)=O)C(=O)N[C@H](C(=O)NCC(=O)N[C@@H](CO)C(=O)N[C@@H](CC(N)=O)C(=O)N[C@H](C(=O)N[C@@H](Cc1ccc(O)cc1)C(N)=O)[C@@H](C)O)C(C)C)[C@@H](C)O, also called compound 41)
10.8 | 12.9 nM | K([AEEA-γGlu-C20 diacid])CNTATCATQRLANFLRHSSPNFGAIPSSTPVGSNTY-NH2 (disulfide 2-7; N-terminus assumed; SMILES CC[C@H](C)[C@H](NC(=O)[C@H](C)NC(=O)CNC(=O)[C@H](Cc1ccccc1)NC(=O)[C@H](CC(N)=O)NC(=O)[C@@H]1CCCN1C(=O)[C@H](CO)NC(=O)[C@H](CO)NC(=O)[C@H](Cc1c[nH]cn1)NC(=O)[C@H](CCCNC(=N)N)NC(=O)[C@H](CC(C)C)NC(=O)[C@H](Cc1ccccc1)NC(=O)[C@H](CC(N)=O)NC(=O)[C@H](C)NC(=O)[C@H](CC(C)C)NC(=O)[C@H](CCCNC(=N)N)NC(=O)[C@H](CCC(N)=O)NC(=O)[C@@H](NC(=O)[C@H](C)NC(=O)[C@@H]1CSSC[C@H](NC(=O)[C@@H](N)CCCCNC(=O)COCCOCCNC(=O)CC[C@H](NC(=O)CCCCCCCCCCCCCCCCCCC(=O)O)C(=O)O)C(=O)N[C@@H](CC(N)=O)C(=O)N[C@@H]([C@@H](C)O)C(=O)N[C@@H](C)C(=O)N[C@@H]([C@@H](C)O)C(=O)N1)[C@@H](C)O)C(=O)N1CCC[C@H]1C(=O)N[C@@H](CO)C(=O)N[C@@H](CO)C(=O)N[C@H](C(=O)N1CCC[C@H]1C(=O)N[C@H](C(=O)NCC(=O)N[C@@H](CO)C(=O)N[C@@H](CC(N)=O)C(=O)N[C@H](C(=O)N[C@@H](Cc1ccc(O)cc1)C(N)=O)[C@@H](C)O)C(C)C)[C@@H](C)O, also called compound 49)

From patent US20140087995A1 (published 2014)
